Holding throughout (test): cross-linking
For assay [1], the target named is Recombinant full-length human apolipoprotein A-I L170P (human).
The target of assay [2] is Recombinant full-length human apolipoprotein A-I L159R (Finnish variant) (human).
For assay [3], the target named is Recombinant full-length human apolipoprotein A-I F71Y (human).

In general, stoichiometry N refers to a count of units in the complex or per binding partner. In the case of “Recombinant full-length human apolipoprotein A-I L170P (natural protein)”, the stoichiometry N in assay [1] came out at 2. Turning to “Recombinant full-length human apolipoprotein A-I L159R (Finnish variant) (natural protein)”, in assay [2], the stoichiometry N was determined as 2.

For the substance “Recombinant full-length human apolipoprotein A-I F71Y (natural protein)”, in assay [3], the stoichiometry N worked out at 2.

The values above are taken from PMC6067968.
